Measured values: US20240270874A1 (JIANGSU HENGRUI PHARMACEUTICALS, published 2024)

T1: hKLB (R&D, Cat. # 5889-KB) (human, UniProt Q86Z14 53-997, limits assumed)
T1 construct: bought soluble protein; also called KLB protein; human KLB
T1 sequence (looked up): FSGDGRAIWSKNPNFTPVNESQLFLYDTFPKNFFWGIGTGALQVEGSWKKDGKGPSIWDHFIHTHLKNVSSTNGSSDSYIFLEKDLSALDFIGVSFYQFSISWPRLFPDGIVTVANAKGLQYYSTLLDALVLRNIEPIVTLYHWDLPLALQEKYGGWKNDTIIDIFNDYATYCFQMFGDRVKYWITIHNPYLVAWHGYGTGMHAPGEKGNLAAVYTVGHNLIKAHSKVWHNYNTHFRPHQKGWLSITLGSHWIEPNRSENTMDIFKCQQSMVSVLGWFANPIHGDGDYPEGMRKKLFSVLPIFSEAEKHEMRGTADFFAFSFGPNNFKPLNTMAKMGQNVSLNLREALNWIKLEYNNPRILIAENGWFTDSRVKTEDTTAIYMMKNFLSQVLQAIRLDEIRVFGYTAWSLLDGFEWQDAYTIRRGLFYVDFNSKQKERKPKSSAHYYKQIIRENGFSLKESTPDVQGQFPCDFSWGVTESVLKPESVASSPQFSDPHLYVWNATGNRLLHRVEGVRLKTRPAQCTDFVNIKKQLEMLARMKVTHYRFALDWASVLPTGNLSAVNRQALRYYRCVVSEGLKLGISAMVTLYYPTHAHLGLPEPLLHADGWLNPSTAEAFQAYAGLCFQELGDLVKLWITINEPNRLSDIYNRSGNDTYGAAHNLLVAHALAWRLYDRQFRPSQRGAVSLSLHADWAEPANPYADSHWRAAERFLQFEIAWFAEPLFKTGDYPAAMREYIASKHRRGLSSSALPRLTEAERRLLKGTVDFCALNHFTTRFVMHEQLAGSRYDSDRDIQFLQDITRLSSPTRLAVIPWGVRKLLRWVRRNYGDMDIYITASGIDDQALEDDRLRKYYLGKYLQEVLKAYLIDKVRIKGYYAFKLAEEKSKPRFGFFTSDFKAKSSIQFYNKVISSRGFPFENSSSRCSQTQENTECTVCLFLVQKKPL

B1: hAb-23 (antibody, human IgG1, kappa, L234A L235A, V domains shown)
VH: QVQLVQSGAEVKKPGSSVKVSCKASGGTFSSYAISWVRQAPGQGLEWMGGIIPIFGTANYAQKFQGRVTITADESTSTAYMELSSLRSEDTAVYYCARELVSYYYGMDVWGQGTMVTVSS
VL: not shown
notes: from a human natural phage library; human IgG1 (L234A, L235A) / kappa; also called fully human antibody hAb-23
B2: hAb18-8 (antibody, human IgG1, kappa, L234A L235A, V domains shown)
VH: EVQLVQSGAEVKKPGASVKVSCKASGYTFTDYAMHWVRQAPGQRLEWMGVISTYSGTTNYNQNFKGRVTITVDKSASTAYMELSSLRSEDTAVYYCARSGPLDYWGQGTTVTVSS
VL: ENVLTQSPDFQSVTPKEKVTITCRATSSVSSSYLHWYQQKPDQSPKLWIYSTSQLASGVPSRFSGSGSGTDYTLTINSLEAEDAATYYCQQYSGYPLTFGQGTKLEIKR
notes: human IgG1 (L234A, L235A) / kappa
B3: hAb99-13 (antibody, human IgG1, kappa, L234A L235A, V domains shown)
VH: EVQLVQSGAEVKKPGASVKVSCKASGYTFTNYGINWVRQAPGQRLEWMGYIYIGNVDIEYNAKFKGRVTITSDTSASTAYMELSSLRSEDTAVYYCARGRGLGHFDVWGQGTTVTVSS
VL: DIQMTQSPSSLSASVGDRVTITCRASKSISKFLAWFQQKPGKTNKLLIYSGSTLQSGVPSRFSGSGSGTDFTLTISSLQPEDFATYYCQQHNEYPWTFGGGTKVEIKR
notes: as for B2

Experiments:
[1] = target: human KLB & human FGFR3c on L6 cells (human, UniProt Q86Z14 1-1044; P22607 23-806); assay: cell-based or functional assay
Chain of human KLB & human FGFR3c on L6 cells (Q86Z14 whole entry, chain 1 of 2): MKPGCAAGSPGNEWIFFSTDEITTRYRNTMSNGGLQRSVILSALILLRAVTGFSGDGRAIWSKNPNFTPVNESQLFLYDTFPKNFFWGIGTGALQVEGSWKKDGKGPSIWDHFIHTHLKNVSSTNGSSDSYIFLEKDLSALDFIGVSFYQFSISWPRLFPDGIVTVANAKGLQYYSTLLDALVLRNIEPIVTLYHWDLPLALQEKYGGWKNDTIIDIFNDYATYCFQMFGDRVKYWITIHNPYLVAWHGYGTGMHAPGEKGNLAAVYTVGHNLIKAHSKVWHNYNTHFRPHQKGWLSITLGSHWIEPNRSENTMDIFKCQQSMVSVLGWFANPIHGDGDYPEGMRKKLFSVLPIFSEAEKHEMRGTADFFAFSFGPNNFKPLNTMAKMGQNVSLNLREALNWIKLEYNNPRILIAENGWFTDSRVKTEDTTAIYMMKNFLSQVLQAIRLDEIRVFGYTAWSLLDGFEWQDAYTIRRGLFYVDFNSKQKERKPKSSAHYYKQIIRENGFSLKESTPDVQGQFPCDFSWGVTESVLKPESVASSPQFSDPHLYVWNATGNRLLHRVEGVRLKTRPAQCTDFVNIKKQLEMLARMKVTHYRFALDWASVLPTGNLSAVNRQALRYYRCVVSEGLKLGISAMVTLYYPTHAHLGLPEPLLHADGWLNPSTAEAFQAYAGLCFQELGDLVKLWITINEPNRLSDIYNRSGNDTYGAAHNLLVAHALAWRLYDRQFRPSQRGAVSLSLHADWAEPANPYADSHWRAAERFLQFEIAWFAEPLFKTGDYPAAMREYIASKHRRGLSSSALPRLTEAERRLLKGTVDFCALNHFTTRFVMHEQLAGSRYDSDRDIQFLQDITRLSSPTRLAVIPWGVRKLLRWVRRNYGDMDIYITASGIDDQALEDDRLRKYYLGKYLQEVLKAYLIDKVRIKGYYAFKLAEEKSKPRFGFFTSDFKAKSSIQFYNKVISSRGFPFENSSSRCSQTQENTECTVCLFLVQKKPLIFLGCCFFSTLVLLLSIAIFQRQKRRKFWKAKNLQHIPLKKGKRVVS
Chain of human KLB & human FGFR3c on L6 cells (P22607 23-806, chain 2 of 2): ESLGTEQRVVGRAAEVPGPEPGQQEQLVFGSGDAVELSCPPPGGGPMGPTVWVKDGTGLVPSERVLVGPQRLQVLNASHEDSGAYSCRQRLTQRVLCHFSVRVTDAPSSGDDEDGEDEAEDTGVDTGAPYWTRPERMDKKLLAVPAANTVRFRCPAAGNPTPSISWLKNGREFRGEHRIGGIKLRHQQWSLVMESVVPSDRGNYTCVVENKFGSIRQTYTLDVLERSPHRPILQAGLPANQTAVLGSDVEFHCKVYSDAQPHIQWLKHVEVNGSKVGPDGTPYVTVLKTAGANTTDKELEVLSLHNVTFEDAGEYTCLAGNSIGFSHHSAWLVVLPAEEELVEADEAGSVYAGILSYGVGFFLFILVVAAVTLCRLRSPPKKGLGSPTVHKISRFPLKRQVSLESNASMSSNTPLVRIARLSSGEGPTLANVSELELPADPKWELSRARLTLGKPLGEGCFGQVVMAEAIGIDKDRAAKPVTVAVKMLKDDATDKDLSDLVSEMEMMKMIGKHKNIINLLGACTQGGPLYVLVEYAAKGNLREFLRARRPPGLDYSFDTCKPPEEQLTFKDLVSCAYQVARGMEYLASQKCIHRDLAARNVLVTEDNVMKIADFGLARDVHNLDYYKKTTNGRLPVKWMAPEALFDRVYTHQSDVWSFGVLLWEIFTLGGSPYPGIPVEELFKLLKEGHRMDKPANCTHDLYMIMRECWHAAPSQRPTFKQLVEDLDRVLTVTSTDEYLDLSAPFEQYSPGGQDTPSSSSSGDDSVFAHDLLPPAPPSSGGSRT

[2] = target: human KLB & human FGFR4 on L6 cells (human, UniProt Q86Z14 1-1044; P22455 22-802); assay: cell-based or functional assay
Chain of human KLB & human FGFR4 on L6 cells (Q86Z14 whole entry, chain 1 of 2): as the sequence (Q86Z14 whole entry, chain 1 of 2) above
Chain of human KLB & human FGFR4 on L6 cells (P22455 22-802, chain 2 of 2): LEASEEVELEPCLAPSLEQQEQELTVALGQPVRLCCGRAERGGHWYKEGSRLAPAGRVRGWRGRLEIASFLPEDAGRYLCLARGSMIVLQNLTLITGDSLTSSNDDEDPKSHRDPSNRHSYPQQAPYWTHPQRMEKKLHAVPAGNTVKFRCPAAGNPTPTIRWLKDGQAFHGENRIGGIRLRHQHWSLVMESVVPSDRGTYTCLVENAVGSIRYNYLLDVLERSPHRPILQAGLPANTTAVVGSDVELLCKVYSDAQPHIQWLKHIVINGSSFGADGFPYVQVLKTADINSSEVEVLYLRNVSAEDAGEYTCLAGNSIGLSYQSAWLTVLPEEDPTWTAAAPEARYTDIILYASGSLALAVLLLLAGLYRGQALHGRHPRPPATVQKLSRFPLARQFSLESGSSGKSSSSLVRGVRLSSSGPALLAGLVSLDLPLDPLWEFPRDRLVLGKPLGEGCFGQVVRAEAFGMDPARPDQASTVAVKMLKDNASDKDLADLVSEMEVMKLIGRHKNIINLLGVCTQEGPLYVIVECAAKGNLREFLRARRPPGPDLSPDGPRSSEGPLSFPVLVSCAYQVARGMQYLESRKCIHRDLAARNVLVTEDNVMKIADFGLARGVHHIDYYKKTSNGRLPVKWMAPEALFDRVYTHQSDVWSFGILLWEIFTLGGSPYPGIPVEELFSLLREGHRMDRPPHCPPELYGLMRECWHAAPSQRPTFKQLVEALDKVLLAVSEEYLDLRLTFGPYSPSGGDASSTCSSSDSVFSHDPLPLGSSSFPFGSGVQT

[3] = target: T1, hKLB (R&D, Cat. # 5889-KB); assay: BLI (Octet HTX) competition; KLB+antibody premix on SA sensor; competitor: immobilised Bio-FGF21
Procedure: Bio-FGF21/Bio-FGF19 (obtained by subjecting FGF21 and FGF19 to Biotin labeling with a Biotin Labeling Kit-NH2 (available from DOJINDO Molecular technologies Inc., LK03), wherein FGF21 is set forth in SEQ ID NO: 76 and FGF19 is set forth in SEQ ID NO: 77) was immobilized to an SA sensor (incubation for 80 s) at a concentration of 2 μg/mL, and the sensor was then transferred to a sample well containing KLB (R&D, 5889-KB-1 mg) or containing KLB+antibody premix (pre-incubation for at least 15 min) for 180 s of binding. The reaction signals were detected in real time using the ForteBio OCTET HTX instrument to obtain a binding curve.

[4] = target: human KLB&FGFR1c complex on cells (human, UniProt Q86Z14 1-1044; P11362 22-822); assay: cell-based or functional assay
Chain of human KLB&FGFR1c complex on cells (P11362 22-822, one chain of several): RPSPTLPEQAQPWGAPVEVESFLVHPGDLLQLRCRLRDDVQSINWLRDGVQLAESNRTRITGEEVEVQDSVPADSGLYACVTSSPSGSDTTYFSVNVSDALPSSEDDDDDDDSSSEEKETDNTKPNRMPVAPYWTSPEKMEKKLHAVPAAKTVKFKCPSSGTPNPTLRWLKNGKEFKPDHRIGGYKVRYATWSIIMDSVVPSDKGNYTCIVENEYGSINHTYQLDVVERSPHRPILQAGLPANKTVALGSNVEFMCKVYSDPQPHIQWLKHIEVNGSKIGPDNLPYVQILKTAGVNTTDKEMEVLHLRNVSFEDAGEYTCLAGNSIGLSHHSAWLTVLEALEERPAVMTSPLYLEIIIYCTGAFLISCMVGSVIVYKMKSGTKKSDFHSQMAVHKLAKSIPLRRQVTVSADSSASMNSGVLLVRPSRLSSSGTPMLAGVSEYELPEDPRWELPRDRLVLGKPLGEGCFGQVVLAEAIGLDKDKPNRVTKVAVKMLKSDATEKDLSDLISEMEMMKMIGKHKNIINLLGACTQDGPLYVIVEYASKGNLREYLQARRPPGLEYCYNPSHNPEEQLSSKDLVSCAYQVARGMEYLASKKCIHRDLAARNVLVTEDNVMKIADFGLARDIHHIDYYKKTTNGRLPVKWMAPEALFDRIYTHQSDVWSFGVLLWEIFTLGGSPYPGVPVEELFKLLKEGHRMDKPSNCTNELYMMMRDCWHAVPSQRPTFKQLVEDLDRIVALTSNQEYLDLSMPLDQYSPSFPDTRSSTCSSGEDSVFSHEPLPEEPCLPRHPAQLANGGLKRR

Row | Binder | Activation fold, pERK/total ERK in L6-hKLB&hFGFR3c cells [1] | Activation fold, pERK/total ERK in L6-hKLB&hFGFR4 cells [2] | binding signal of KLB to Bio-FGF21, % of KLB alone [3] | Activation fold, SRE-Luc2P reporter in HEK293T-hKLB&hFGFR1c cells [4] | EC50 (nM), SRE-Luc2P reporter in HEK293T-hKLB&hFGFR1c cells [4]
1 | B1 | 1.08 fold | 0.91 fold | 113% | – | –
2 | B2 | 1.41 fold | 0.98 fold | 108% | 2.29 fold | 5.35 nM
3 | B3 | 4.95 fold | 1.54 fold | 108% | 3.57 fold | 2.62 nM
